Experimental data: patent US6903077, “Methods and products for delivering nucleic acids” (University of Vermont and State Agricultural College)

Experiments:
GST-Z2 = system: T1, GST-Z2
T1 sequence: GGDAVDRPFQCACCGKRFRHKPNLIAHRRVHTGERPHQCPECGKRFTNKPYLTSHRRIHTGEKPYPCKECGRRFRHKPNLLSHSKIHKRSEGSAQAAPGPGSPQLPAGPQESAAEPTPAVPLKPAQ

GST-Z1 = system: T2, GST-Z1
T2 sequence: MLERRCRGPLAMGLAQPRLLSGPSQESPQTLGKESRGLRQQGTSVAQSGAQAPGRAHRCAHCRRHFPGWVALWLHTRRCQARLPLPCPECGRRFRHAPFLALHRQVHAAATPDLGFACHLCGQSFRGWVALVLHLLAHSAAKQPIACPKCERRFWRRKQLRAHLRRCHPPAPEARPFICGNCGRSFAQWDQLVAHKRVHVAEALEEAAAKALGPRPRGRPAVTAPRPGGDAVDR

GST-Z3 = system: T3, GST-Z3
T3 sequence: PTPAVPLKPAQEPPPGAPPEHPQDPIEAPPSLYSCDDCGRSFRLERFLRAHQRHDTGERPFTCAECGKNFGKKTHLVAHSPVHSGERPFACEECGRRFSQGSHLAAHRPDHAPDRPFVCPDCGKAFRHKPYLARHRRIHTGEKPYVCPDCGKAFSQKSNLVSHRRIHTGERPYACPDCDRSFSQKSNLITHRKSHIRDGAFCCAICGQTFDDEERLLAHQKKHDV

GST-Z2-P123 [1] = system: T4, GST-Z2-P123
T4 sequence: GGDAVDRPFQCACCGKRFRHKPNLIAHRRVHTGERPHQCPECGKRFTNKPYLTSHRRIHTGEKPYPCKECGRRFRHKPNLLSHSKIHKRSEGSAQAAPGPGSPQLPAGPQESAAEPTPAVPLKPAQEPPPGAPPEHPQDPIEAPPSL

[2] = target: the molecule itself; test: Gel shift Multimers, self-association on DNA
Protocol: Binding reactions (30 ul) contained 0.05 pmole labeled DSR probe, 40 mM KCl, 10 mM HEPES (pH 8.0), 4% Ficoll, 33 ng/ul poly dIdC, 1 mM DTT, 16.7 uM ZnCl_2, and 0.5–10 ug of protein. Binding reactions were incubated for 20 minutes at 37° C., 15 min on ice, and then resolved on 6% native polyacrylamide gels in 0.25×TBE buffer. Gels were dried, exposed to Kodak XAR film at −80° C., and signals were detected by autoradiography. Competition binding reactions were assembled as described above with the addition of 0.5, 5, or 50 pmole of unlabeled double-stranded competitor DNA to the reactions prior to the addition of protein. For time course competition assays, 60 ul binding reactions were assembled and incubated as above. Following the incubation step on ice, 50 pmole of unlabeled DSR competitor DNA was added to the binding reactions and samples where removed at the indicated time points, loaded on a 6% native PAGE gel, and resolved by electrophoresis at 25V until all samples were loaded. After the final sample was loaded, the voltage was increased to 100V and samples were resolved by electrophoresis for an additional 1.5 hours. Signals on the dried gels were quantified on a phosphoimager (BioRad model GS 525). A value for % probe bound was calculated as a ratio of protein-bound probe to total probe (bound and unbound probe) per sample and values were plotted against time. […]

[3] = target: T5, GST-Z2 (RIP60 zinc fingers 6-8 plus part of PRR, GST-Z2-P12) (Homo sapiens, UniProt Q9BWE0 SEQ:1-126); test: competition; USR competes for binding to DSR; conditions: tags: GST N-terminal
T5 sequence: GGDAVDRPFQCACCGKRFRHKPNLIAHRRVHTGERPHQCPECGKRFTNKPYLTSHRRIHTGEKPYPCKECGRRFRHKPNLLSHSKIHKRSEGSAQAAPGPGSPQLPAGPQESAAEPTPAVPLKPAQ
Protocol: (§1) Binding reactions were incubated for 20 minutes at 37° C., 15 min on ice, and then resolved on 6% native polyacrylamide gels in 0.25×TBE buffer. Gels were dried, exposed to Kodak XAR film at −80° C., and signals were detected by autoradiography. Competition binding reactions were assembled as described above with the addition of 0.5, 5, or 50 pmole of unlabeled double-stranded competitor DNA to the reactions prior to the addition of protein. For time course competition assays, 60 ul binding reactions were assembled and incubated as above. Following the incubation step on ice, 50 pmole of unlabeled DSR competitor DNA was added to the binding reactions and samples where removed at the indicated time points, loaded on a 6% native PAGE gel, and resolved by electrophoresis at 25V until all samples were loaded. After the final sample was loaded, the voltage was increased to 100V and samples were resolved by electrophoresis for an additional 1.5 hours. Signals on the dried gels were quantified on a phosphoimager (BioRad model GS 525). A value for % probe bound was calculated as a ratio of protein-bound probe to total probe (bound and unbound probe) per sample and values were plotted against time.
(§2) Binding of the GST-Z2 to the DSR probe was stable in the presence of 1000-fold excess of IBF, SV-AT, or Py-AT competitors, but was competed with 100-fold excess of unlabeled DSR DNA. […]

[4] = target: T6, GST-Z1 (RIP60 zinc fingers 1-5) (Homo sapiens, UniProt Q9BWE0 SEQ:1-234); test: EMSA; footprinting and gel shift; unstable binding; conditions: tags: GST N-terminal
T6 chain: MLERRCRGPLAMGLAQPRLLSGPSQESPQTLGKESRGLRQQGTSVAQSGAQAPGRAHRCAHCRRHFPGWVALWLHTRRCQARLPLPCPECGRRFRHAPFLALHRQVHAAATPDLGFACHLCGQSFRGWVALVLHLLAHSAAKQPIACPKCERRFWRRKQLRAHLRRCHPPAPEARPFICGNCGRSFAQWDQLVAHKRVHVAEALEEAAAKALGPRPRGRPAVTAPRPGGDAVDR

GST-Z12 [5] = target: T7, GST-Z12 (Homo sapiens, UniProt Q9BWE0 SEQ:1-349); test: competition; USR competes; conditions: tags: GST N-terminal
T7 chain: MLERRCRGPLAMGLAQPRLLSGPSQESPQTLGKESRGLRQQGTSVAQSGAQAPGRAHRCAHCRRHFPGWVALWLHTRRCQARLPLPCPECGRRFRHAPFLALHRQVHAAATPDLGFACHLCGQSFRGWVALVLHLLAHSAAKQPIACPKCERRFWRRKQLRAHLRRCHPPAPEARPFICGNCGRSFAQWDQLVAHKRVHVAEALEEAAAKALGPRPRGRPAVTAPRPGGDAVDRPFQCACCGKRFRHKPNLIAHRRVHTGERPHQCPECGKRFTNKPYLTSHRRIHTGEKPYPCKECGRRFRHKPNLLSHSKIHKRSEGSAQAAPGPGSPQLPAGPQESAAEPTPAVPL
Protocol: as §1, §2

GST-Z2-P123 [6] = target: T8, GST-Z2-P123 (Homo sapiens, UniProt Q9BWE0 SEQ:1-147); test: EMSA; multimers; conditions: tags: GST N-terminal; label: 32P; 5' overhangs
T8 sequence: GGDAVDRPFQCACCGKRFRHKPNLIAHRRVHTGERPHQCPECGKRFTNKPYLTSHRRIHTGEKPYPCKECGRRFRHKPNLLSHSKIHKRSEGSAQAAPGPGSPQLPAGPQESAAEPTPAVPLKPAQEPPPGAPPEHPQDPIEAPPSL

[7] = target: T5, GST-Z2 (RIP60 zinc fingers 6-8 plus …); test: EMSA; competed by 100-fold DSR; more stable than GST-Z1; conditions: tags: GST N-terminal; label: 32P; 5' overhangs
Protocol: (§3) A value for % probe bound was calculated as a ratio of protein-bound probe to total probe (bound and unbound probe) per sample and values were plotted against time.
(§4) Binding of the GST-Z2 to the DSR probe was stable in the presence of 1000-fold excess of IBF, SV-AT, or Py-AT competitors, but was competed with 100-fold excess of unlabeled DSR DNA. […] In contrast, binding of GST-Z3 to the DSR probe was eliminated by a 1000-fold excess of all unlabelled competitors tested. […] In a like manner, the USR was also able to compete for binding of these proteins to the DSR.
(§5) To ascertain if Z1 and Z2 show any differences in binding activity, the stability of Z1 and Z2 complexes with the DSR was examined in competition gel shift assays. Identical amounts of GST-Z1 and GST-Z2 were incubated with ^32P-labeled probe for 20 min, and then a 1000-fold molar excess of unlabeled competitor DSR was added. Samples were removed from the binding reactions at various times thereafter and loaded directly onto non-denaturing gels running at low voltage. After all the samples were loaded, the voltage was increased to 100V for 1 hr. After drying the gels, the signals in the shifted complexes were quantified by phosphoimaging.

[8] = target: T6, GST-Z1 (RIP60 zinc fingers 1-5); test: EMSA; competed by 100-fold DSR; less stable than GST-Z2; conditions: tags: GST N-terminal; label: 32P; 5' overhangs
Protocol: as §3, §4, §5

GST-Z12 [9] = target: T7, GST-Z12; test: EMSA; specific; conditions: tags: GST N-terminal; label: 32P; 5' overhangs
Protocol: DSR (50 pmole) was labeled by Klenow fill-in reaction of 5' overhangs in the presence of [α-^32P]-dATP. Other probes were end-labeled with polynucleotide kinase and [γ-^32P]. Binding reactions (30 ul) contained 0.05 pmole labeled DSR probe, 40 mM KCl, 10 mM HEPES (pH 8.0), 4% Ficoll, 33 ng/ul poly dIdC, 1 mM DTT, 16.7 uM ZnCl_2, and 0.5–10 ug of protein. Binding reactions were incubated for 20 minutes at 37° C., 15 min on ice, and then resolved on 6% native polyacrylamide gels in 0.25×TBE buffer. Gels were dried, exposed to Kodak XAR film at −80° C., and signals were detected by autoradiography. Competition binding reactions were assembled as described above with the addition of 0.5, 5, or 50 pmole of unlabeled double-stranded competitor DNA to the reactions prior to the addition of protein. For time course competition assays, 60 ul binding reactions were assembled and incubated as above. […] Signals on the dried gels were quantified on a phosphoimager (BioRad model GS 525). A value for % probe bound was calculated as a ratio of protein-bound probe to total probe (bound and unbound probe) per sample and values were plotted against time. […]

GST-Z2-P1 = target: T9, GST-Z2-P1 (Homo sapiens, UniProt Q9BWE0 SEQ:225-337); test: EMSA; no multimers; conditions: tags: GST N-terminal; label: 32P; 5' overhangs
T9 sequence: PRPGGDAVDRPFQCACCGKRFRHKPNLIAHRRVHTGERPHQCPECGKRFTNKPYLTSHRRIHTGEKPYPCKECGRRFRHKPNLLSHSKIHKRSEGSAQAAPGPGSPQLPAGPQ

[10] = target: T5, GST-Z2 (RIP60 zinc fingers 6-8 plus …); test: competition; no competition at 1000-fold excess; conditions: tags: GST N-terminal
Protocol: as §1, §2

[11] = target: T6, GST-Z1 (RIP60 zinc fingers 1-5); test: competition; not significantly competing; conditions: tags: GST N-terminal
Protocol: as §1, §2

casein kinase II was tested, and the “phosphorylation in vitro (32P-ATP, SDS gel, autoradiography)” value (GST-Z2) was “Only the GST-Z2 polypeptide, which contains the casein kinase II phosphorylation domain was phosphorylated”, the “phosphorylation in vitro with and without DNA” value (GST-Z2) was “GST-Z2 polypeptide was phosphorylated by casein kinase II in the absence of DNA. However, the extent of phosphorylation increased in the presence of the double stranded DRS oligo, the linearized plasmid pCH127 and the supercoiled pCH127” and the “phosphorylation in vitro (32P-ATP, SDS gel, autoradiography)” value (GST-Z1) was “neither GST-Z1 nor GST-Z3 were phosphorylated to any great degree”. For the same molecule, the “phosphorylation in vitro (32P-ATP, SDS gel, autoradiography)” value (GST-Z3) was “neither GST-Z1 nor GST-Z3 were phosphorylated to any great degree” and the “phosphorylation in vitro (32P-ATP, SDS gel, autoradiography)” value (GST-Z2-P123 [1]) was “Both GST-Z2 and GST-Z2P123 were phosphorylated”.

B1: GST-Z2 (other)
chain: GGDAVDRPFQCACCGKRFRHKPNLIAHRRVHTGERPHQCPECGKRFTNKPYLTSHRRIHTGEKPYPCKECGRRFRHKPNLLSHSKIHKRSEGSAQAAPGPGSPQLPAGPQESAAEPTPAVPLKPAQ
notes: also called GST-Z2(P12); GST-Z2-P12; not shown: glutathione-S-transferase (GST) purification tag, 26 kD, encoded by pGEX-2T (Pharmacia Biotech), at the amino terminus
B1: binds [2].

B2: USR (OCH39/OCH40) (dsDNA)
DNA 1: GATCTTAACAGTAATAATAAATATCT
DNA 2: GATCAGATATTTATTATTACTGTTAA
B2: binds [3]; binds [4]; binds (GST-Z12 [5]).

B3: DSR (OCH7/OCH8) (dsDNA)
DNA 1: GATCTTTTATTATTATTATTAGTTCG
DNA 2: GATCCGAACTAATAATAATAATAAAA
B3: binds (GST-Z2-P123 [6]); binds [7]; binds [8]. B3: binds (GST-Z12 [9]); binds (GST-Z2-P1).

B4: IBF (OCH13/OCH14) (dsDNA)
DNA 1: GATCCGGGAAGGCGGGCGCTGGGGGCGCTGCGGCGCTGCGCTCCACCT
DNA 2: GATCTAGGTGGAGCGCAGCGCCGCAGCGCCCCCAGCGCCCGCCTTCCCG
B4: no binding [10]; no binding [11].

B5: Py-AT (OCH37/OCH38) (dsDNA)
DNA 1: CTGTTTTTTTTAGTATTAAGC
DNA 2: GCTTAATACTAAAAAAAACAG
B5: no binding [10].
